Consider seven compounds from paper PMC9703140 (Nature chemical biology, 2022).

As a reminder, the Kd is the free concentration of one partner at which half of the binding sites on the other are occupied at equilibrium, for simple one-to-one binding.

Assay [1] concerns the target TAPBPR^WT (luminal domain of TAPBPR C94S). Briefly: SPR. In general terms: SPR reads the build-up and loss of mass on a sensor chip optically.
The target in assay [2] is T1, MHC-related protein 1 (MR1), hpMR1 (Homo sapiens, UniProt Q95460). Briefly: DSF of refolded complex. The format is binding.
Assay [3] has as its target T1, MHC-related protein 1 (MR1), hpMR1. Briefly: 1D […] NMR titration. Format: binding.

“TAX9/HLA-A*02:01/hβ2m (from UniProt P61769 21-119) (peptide-MHC)” returned a Kd in assay [1] of 18.5 µM.

“Ac-6-FP loaded hMR1 C262S/hβ2m (from UniProt P61769 21-119) (complex)” came in with a Kd in assay [1] of 100 µM. With `O=Cc1c(O)ccc2ccccc12` [2OH1NA, 2-hydroxy-1-naphthaldehyde], in assay [2], the “DSF of refolded complex (Tm 55.3 °C); NMR methyl HMQC” value was 55.3 °C. Turning to “Ac-6-FP loaded hMR1/hβ2m (wild type) (from UniProt P61769 21-119) (complex)”, the Kd in assay [1] was found to be 100 µM.

In the case of `O=C(O)Cc1ccccc1Nc1c(Cl)cc(F)cc1Cl` [19F-DCF, 2-(2-((2,6-dichloro-4-fluorophenyl)amino)phenyl)acetic acid], the affinity in assay [3], expressed as Kd, was 36.1 µM.

“UV-irradiated HLA-A*02:01/hβ2m (empty, peptide-deficient) (from UniProt P61769 21-119) (complex)” yielded a Kd in assay [1] of 0.082 µM. Still for that read-out and setting: as for “Ac-6-FP–hpMR1–bβ2m (from UniProt Q95460 23-290; P01888 21-118) (complex)”, the figure is 104 µM.
